Measured values as given in the DeepSol protein solubility set.

Test: soluble on expression in E. coli; label from the status in PepcDB or PDB records

Sequence | soluble on expression in E. coli
MPEITVLMPVRNGERYIKESIDSVLNQTLTDFEFLIIDDGSTDRTVEIIQGYTDKRIRLVRKEHQFIQNLNEGLELASGSYIARMDADDIMHTERLRIQLKRMKKNPDITVCGTWAKIFSDKGNERNVSHLGYGIIHEPVLELLKYNMLLHPSVMIKKEFLLNHHIEYQNYPCVEDYKLWFDIAKAGGILFVEPQELLMFRRSDTQVTVTKKKEMSLGSIRLRKEILLYLLSIYNNKTLNSLLSDFENLEKNKWMSNEDIFRFFVNLFNRIQRDTMVLEHHHHHH | soluble
MEPSSLELPADTVQRIAAELKCHPTDERVALHLDEEDKLRHFRECFYIPKIQDLPPVDLSLVNKDENAIYFLGNSLGLQPKMVKTYLEEELDKWAKIAAYGHEVGKRPWITGDESIVGLMKDIVGANEKEIALMNALTVNLHLLMLSFFKPTPKRYKILLEAKAFPSDHYAIESQLQLHGLNIEESMRMIKPREGEETLRIEDILEVIEKEGDSIAVILFSGVHFYTGQHFNIPAITKAGQAKGCYVGFDLAHAVGNVELYLHDWGVDFACWCSYKYLNAGAGGIAGAFIHEKHAHTIKPALVGWFGHELSTRFKMDNKLQLIPGVCGFRISNPPILLVCSLHASLEIFKQATMKALRKKSVLLTGYLEYLIKHNYGKDKAATKKPVVNIITPSHVEERGCQLTITFSVPNKDVFQELEKRGVVCDKRNPNGIRVAPVPLYNSFHDVYKFTNLLTSILDSAETKN | soluble
MKGQLAFDLPIRPALSREDFFISPANALALASLDGWRDWPRGKMVLVGPRGSGKTHLAHIWAAQAEARLIPAEALARADLPALAADGAVAVEDAERLGGDRAAEEALFHLHNLMLERAGALLITAAGPPRDWGLGLADLKSRMQAASVTRLEAPDDALLSAMLVKLFTDRQIAVPGMLVPWLVARMDRSCEAARALVAALDARSLAERRPISRQMAAELLGLTATDLEHHHHHH | not soluble
MSASSSSALPPLVPALYRWKSTGSSGRQVQRRCVGAEAIVGLEEKNRRALYDLYIATSLRNIAPASTLLTLQNLKEMFELALLDARFEHPECACTVSWDDEVPAIITYESPESNESARDWARGCIHVQPTAKSALDLWSEMEEGRAAANDNTPSKSIELFLLSDVSTDSTPIPQDATVEILFHSNHLFWDGIGCRKFVGDLFRLVGSYIGRSDSREMKKIQWGQEIKNLSPPVVDSLKLDINTLGSEFDDKCTEYTSALVANYKSRGMKFQPGLALPRCVIHKLSADESIDIVKAVKTRLGPGFTISHLTQAAIVLALLDHLKPNDLSDDEVFISPTSVDGRRWLREDIASNFYAMCQTAAVVRIENLKSITVSHKDEKELQVRALESACRNIKKSYRQWLENPFLQALGLRVHNFEASYLHAKPIPFEGEANPLFISDGINERFIPHEIKQTATGENVLSVESIDFVVNQSLPYLAIRLDSWRDASTLNIIYNDANYTEAEVQKYLQSIVEFMLAFRL | soluble
MGHHHHHHSHMACAEFSFHVPSLEELAGVMQKGLKDNFADVQVSVVDCPDLTKEPFTFPVKGICGKTRIAEVGGVPYLLPLVNQKKVYDLNKIAKEIKLPGAFILGAGAGPFQTLGFNSEFMPVIQTESEHKPPVNGSYFAHVNPADGGCLLEKYSEKCHDFQCALLANLFASEGQPGKVIEVKAKRRTGPLNFVTCMRETLEKHYGNKPIGMGGTFIIQKGKVKSHIMPAEFSSCPLNSDEEVNKWLHFYEMKAPLVCLPVFVSRDPGFDLRLEHTHFFSRHGEGGHYHYDTTPDIVEYLGYFLPAEFLYRIDQPKETHSIGRD | soluble
KVKVPYLRLSLPELHIDMDFLKKTVDFSSISALQQTVLYIGRLLVQSGINTLGVDAVAAFNAVSIIDSYVLAPGDSLAASITTFTAQNKGGKQYHRIPKG | not soluble
MSLEAKMEQIYQQIADTLVNIVPEEWKQILLYAEYREGYKKIFFYYYPETRIKPVYSLDITDLFHMNEDKYHELENKLYHCFSRLWEEFKEQEQQQWTNLTYTLDNTGRMKINYGYEDLFELSPVEKQEKWEAEYLEQEIEEGHHHHHH | soluble
VILKDALLMGTKLLKSADIDTPALEAGVLLCRVLNVDRSYLYSHDDYNMTEEEYKKFTLFLEERIKGKPLQYITGHQEFMSLDFIVTPDVLIPRQDTETLVEAVLTHVKSTGLENARILDIGTGSGCIAVSLAHFLKDSRVLALDISEKALEIAETNAKRCGVWDRMFFLKGDALEGLAGIIAQSPFAKDFERKGEGFFDIIVSNPPYIPSEEIKTLHKQVKDYEPRTALDGGIDGLDFYRAITCEAAKLLSTDSLLAFEVGYNQAENVSEFMKESFSAIKVVKDLAGIDRVVMGCRKQLKD | soluble
MGSDKIHHHHHHMAYTVLLVTSVNTYKEQLNHPIMSDVGKLLPTKIKRVESATDEHSLIKLVQDANVSGEKISIAGMQHSQGGQTYYPHGTMLDMKGYNKILEFDPEKKRITVQSGATWNDIQKKVNPYGLAVQVMQSQNIFTVGGSLSVNVHGRDIRHEALIDTVESFRLLMADGTVRNVSREENADLFPYVIGGYGLFGVILDVTLKLTNDELYETHTKMLDYKEYTSYFKEKVKKDENVRMHLARISVAPNSFFREMYVTDYTLAKNQNMREEYSKLKEETIIAAPKFLLGLSRYSDWGKDTFWDIQRSYFERTDGKYETRNNVMRSDSAFMEYENPNRTEVLQEYFVPIDFFTEYIDDLRNVLNEEEFNLLNITVRYVEKNENAVLSYAKDDMFALVLLINQGRSEHEIKKTENVIQKMIDVTLKHNGSYYLPYYSYPSKEQLRRAYPRIEEFLQKKKEADPKERFVNLFYREYTK | not soluble
MDFNLNDEQELFVAGIRELMASENWEAYFAECDRDSVYPERFVKALADMGIDSLLIPEEHGGLEAGFVTVAAVWMELGRLGAPTYVLYQLPGGFNTFLREGTQEQIDKIMAFRGTGKQMWNSAITEPGAGSDVGSLKTTYTRKNGKVYLNGSKCFITSSAYTPYIVVMARDGASPDKPVYTEWFVDMSKAGIKVNKLEKLGLRMDSCCEITFDDVELDEKDMFGREGNGFNRVKEEFDHERFLVALTNYGTAMCAFEDAARYANQRVQFGEAIGRFQLIQEKFAHMAIKLNSMKNMLLEAAWKADNGTITSGDAAMCKYFCANAAFEVVDTAMQVLGGVGIAGNHRITRFWRDLRVDRVSGGSDEMQILTLGRAVLKQYR | not soluble
KLRQWLIDQIDSGKYPGLVWENEEKSIFRIPWKHAGKQDYNREEDAALFKAWALFKGKFREGIDKPDPPTWKTRLRCALNKSNDFEELVERSQLDISDPYKVYRIVPE | soluble
MKETNGIPARLRQVAVIRDGPRQETVVLEADGMYYIKGETVYLQFAEENELGRVNNIVKIAPDEVTVLRSGAVEMRQTSRRRQETSGHYGTVFGRWALAAKTSSMEFHYDERRKKGRLFLSYELMLGDERSGRHTLTLTFKGV | not soluble
MGSDKIHHHHHHLKALVVGLGSIGVRHLNNLHALEVRELGVVRSRNFPPPTEIVPKDIAVFQDIDLALSRKFDLVVVANPTSLHLETLIKALRAGSHVYVEKPVAHEKRRLSELTRYVSLDGPRVLVGCQFRMHPGLRKIEGWIRQGKLGKIHSVQVDLGEYLPGWHPWEDYRQSYAARADQGGGVVLTLIHELDYLHWLFGKPKSVFAIGGHRTSLDITAEDTALITFETEQDICVQLRMDYWRKPPVRHMNIVAENAIVDWDYPTRLTTLRQNGQVLDEMVLVPSWDRNELFLSMMKEFIEGIPRGSIPRVTLRDGIEVLKTALAVKKSLQTHRKVAL | not soluble
MGSDKIHHHHHHMKYSLGPVLYYWPKETLEDFYQQAANCSADTIYLGEAVCSKRRATKVGDWIEMAKTLAASGKQIVLSTLALVQASSELGELKRYVDNGEFLIEASDLGVVNLCAERKLPFVAGHALNCYNAVTLRLLRKQGMVRWCMPVELSRDWLANLLTQCEELGIRNQFEVEVLSYGHLPLAYSARCFTARSEDRPKDECETCCIKYPTGRSMLSQENQQVFVLNGIQTMSGYVYNLGNELTSMHGLVDMVRLSPMGNETFAMLEAFRANENGAAPLDLTSNSDCNGYWKRLPGLVLHA | not soluble
WRRLLESLQQGRRSEERNRLVVERTNQAILLLEPGAGTIIDANPATCVLLGFSRNELTGADIHALLSGPVQEVDSELERCLRETRELSLCHRDGAELVVEAMATQVPHGDDQALCLMFHDIT | not soluble
